The sequences below were run on Escherichia coli TOP10 (assay: shrunken log2 fold change of peptide-encoding DNA abundance (4.5 h post-induction vs induction); higher = less antimicrobial activity (less host growth inhibition)). Conditions: time post-induction: 4.5 h; library: site-saturation at positions 5, 18, 19, 20.
RRIRTRPPRLPRPRPRPPLYPRP was tested, and the “shrunken log2 fold change” value was -0.12.
With RRIRNRPPRLPRPRPRPYQSPRP the “shrunken log2 fold change” value was -0.00256.
In the case of RRIRMRPPRLPRPRPRPWLYPRP, the “shrunken log2 fold change” value is reported as -0.0206.
In the case of RRIRGRPPRLPRPRPRPNPVPRP, the “shrunken log2 fold change” value is reported as 0.145.
In the case of RRIRKRPPRLPRPRPRPYAFPRP, the “shrunken log2 fold change” value is reported as -0.111.
With RRIRLRPPRLPRPRPRPHLCPRP the “shrunken log2 fold change” value was -0.355.
In the case of RRIRDRPPRLPRPRPRPRPLPRP, the “shrunken log2 fold change” value is reported as 0.39.
With RRIRDRPPRLPRPRPRPGPQPRP the “shrunken log2 fold change” value was -0.0494.
For RRIRFRPPRLPRPRPRPGRAPRP, the “shrunken log2 fold change” value was 0.712.
RRIRERPPRLPRPRPRPGQTPRP was tested, and the “shrunken log2 fold change” value was -0.0328.
With RRIRSRPPRLPRPRPRPLQNPRP the “shrunken log2 fold change” value was -0.0368.
In the case of RRIRMRPPRLPRPRPRPNPQPRP, the “shrunken log2 fold change” value is reported as 0.279.
RRIRPRPPRLPRPRPRPVGLPRP was tested, and the “shrunken log2 fold change” value was 0.478.
RRIRNRPPRLPRPRPRPSVCPRP was tested, and the “shrunken log2 fold change” value was -0.174.
In the case of RRIRIRPPRLPRPRPRPDTFPRP, the “shrunken log2 fold change” value is reported as -0.364.
With RRIRMRPPRLPRPRPRPLHGPRP the “shrunken log2 fold change” value was 0.108.
With RRIRVRPPRLPRPRPRPDPRPRP the “shrunken log2 fold change” value was 0.395.
With RRIRQRPPRLPRPRPRPYDGPRP the “shrunken log2 fold change” value was -0.101.
RRIRARPPRLPRPRPRPQNSPRP was tested, and the “shrunken log2 fold change” value was -0.23.
In the case of RRIRKRPPRLPRPRPRPVWRPRP, the “shrunken log2 fold change” value is reported as 0.0611.
In the case of RRIRLRPPRLPRPRPRPCDEPRP, the “shrunken log2 fold change” value is reported as -0.0824.
In the case of RRIRIRPPRLPRPRPRPGKHPRP, the “shrunken log2 fold change” value is reported as -0.222.
For RRIRNRPPRLPRPRPRPFVKPRP, the “shrunken log2 fold change” value was -0.669.
For RRIRCRPPRLPRPRPRPPRPPRP, the “shrunken log2 fold change” value was 0.957.
RRIRNRPPRLPRPRPRPWHRPRP was tested, and the “shrunken log2 fold change” value was 0.049.
For RRIRGRPPRLPRPRPRPDTIPRP, the “shrunken log2 fold change” value was 0.0799.
RRIRERPPRLPRPRPRPHIQPRP was tested, and the “shrunken log2 fold change” value was -0.705.
RRIRGRPPRLPRPRPRPFGAPRP was tested, and the “shrunken log2 fold change” value was 0.793.
With RRIRCRPPRLPRPRPRPLMFPRP the “shrunken log2 fold change” value was -0.433.
For RRIRFRPPRLPRPRPRPWQKPRP, the “shrunken log2 fold change” value was -0.097.
For RRIRDRPPRLPRPRPRPAELPRP, the “shrunken log2 fold change” value was 0.0334.
With RRIRQRPPRLPRPRPRPEILPRP the “shrunken log2 fold change” value was 0.00769.
For RRIRARPPRLPRPRPRPISFPRP, the “shrunken log2 fold change” value was 0.323.
For RRIRVRPPRLPRPRPRPYKNPRP, the “shrunken log2 fold change” value was -0.848.
In the case of RRIRWRPPRLPRPRPRPKTHPRP, the “shrunken log2 fold change” value is reported as 0.293.
For RRIRLRPPRLPRPRPRPVYKPRP, the “shrunken log2 fold change” value was -0.134.
RRIRLRPPRLPRPRPRPNKPPRP was tested, and the “shrunken log2 fold change” value was -0.0372.
With RRIRSRPPRLPRPRPRPDWRPRP the “shrunken log2 fold change” value was 0.132.
RRIRARPPRLPRPRPRPPNCPRP was tested, and the “shrunken log2 fold change” value was 0.354.
In the case of RRIRARPPRLPRPRPRPCRIPRP, the “shrunken log2 fold change” value is reported as -0.0344.
RRIRWRPPRLPRPRPRPHPDPRP was tested, and the “shrunken log2 fold change” value was 0.0175.
RRIRPRPPRLPRPRPRPLHMPRP was tested, and the “shrunken log2 fold change” value was -0.342.
In the case of RRIRARPPRLPRPRPRPFYKPRP, the “shrunken log2 fold change” value is reported as -0.009.
In the case of RRIRIRPPRLPRPRPRPAANPRP, the “shrunken log2 fold change” value is reported as 0.0204.
With RRIRNRPPRLPRPRPRPFEMPRP the “shrunken log2 fold change” value was 0.0463.
RRIRIRPPRLPRPRPRPHDPPRP was tested, and the “shrunken log2 fold change” value was -0.296.
For RRIRGRPPRLPRPRPRPHMAPRP, the “shrunken log2 fold change” value was 0.271.
For RRIRVRPPRLPRPRPRPTIVPRP, the “shrunken log2 fold change” value was -0.497.
With RRIRYRPPRLPRPRPRPRGVPRP the “shrunken log2 fold change” value was 0.0913.
RRIRARPPRLPRPRPRPDPKPRP was tested, and the “shrunken log2 fold change” value was 0.268.
With RRIRYRPPRLPRPRPRPPTMPRP the “shrunken log2 fold change” value was -0.352.
With RRIRGRPPRLPRPRPRPMRAPRP the “shrunken log2 fold change” value was 1.74.
RRIRHRPPRLPRPRPRPETRPRP was tested, and the “shrunken log2 fold change” value was 0.013.
RRIRYRPPRLPRPRPRPTPDPRP was tested, and the “shrunken log2 fold change” value was -0.145.
In the case of RRIRPRPPRLPRPRPRPYMTPRP, the “shrunken log2 fold change” value is reported as -0.227.
For RRIRPRPPRLPRPRPRPMIIPRP, the “shrunken log2 fold change” value was -0.152.
RRIRRRPPRLPRPRPRPFPMPRP was tested, and the “shrunken log2 fold change” value was 0.0657.
In the case of RRIRPRPPRLPRPRPRPGDHPRP, the “shrunken log2 fold change” value is reported as -0.013.
In the case of RRIRERPPRLPRPRPRPNWLPRP, the “shrunken log2 fold change” value is reported as -0.00723.
With RRIRDRPPRLPRPRPRPEPAPRP the “shrunken log2 fold change” value was 0.883.

— the supplement of paper PMC9112550, “Optimization of the antimicrobial peptide Bac7 by deep mutational scanning” (BMC Biology, 2022)
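Also: peptides expressed intracellularly from a pBAD plasmid library in pooled LB shake-flask culture, induced with 0.3% L-arabinose, DNA abundance read by NGS, three biological replicates, DESeq2 with apeglm shrinkage.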
